According to IntAct's records for PubMed 22500027:

B1: BBSome complex member BBS1 (Homo sapiens), Q8NFJ9 (parent)
chain: MAAASSSDSDACGAESNEANSKWLDAHYDPMANIHTFSACLALADLHGDGEYKLVVGDLGPGGQQPRLKVLKGPLVMTESPLPALPAAAATFLMEQHEPRTPALALASGPCVYVYKNLRPYFKFSLPQLPPNPLEQDLWNQAKEDRIDPLTLKEMLESIRETAEEPLSIQSLRFLQLELSEMEAFVNQHKSNSIKRQTVITTMTTLKKNLADEDAVSCLVLGTENKELLVLDPEAFTILAKMSLPSVPVFLEVSGQFDVEFRLAAACRNGNIYILRRDSKHPKYCIELSAQPVGLIRVHKVLVVGSTQDSLHGFTHKGKKLWTVQMPAAILTMNLLEQHSRGLQAVMAGLANGEVRIYRDKALLNVIHTPDAVTSLCFGRYGREDNTLIMTTRGGGLIIKILKRTAVFVEGGSEVGPPPAQAMKLNVPRKTRLYVDQTLREREAGTAMHRAFQTDLYLLRLRAARAYLQALESSLSPLSTTAREPLKLHAVVQGLGPTFKLTLHLQNTSTTRPVLGLLVCFLYNEALYSLPRAFFKVPLLVPGLNYPLETFVESLSNKGISDIIKVLVLREGQSAPLLSAHVNMPGSEGLAAA
partner: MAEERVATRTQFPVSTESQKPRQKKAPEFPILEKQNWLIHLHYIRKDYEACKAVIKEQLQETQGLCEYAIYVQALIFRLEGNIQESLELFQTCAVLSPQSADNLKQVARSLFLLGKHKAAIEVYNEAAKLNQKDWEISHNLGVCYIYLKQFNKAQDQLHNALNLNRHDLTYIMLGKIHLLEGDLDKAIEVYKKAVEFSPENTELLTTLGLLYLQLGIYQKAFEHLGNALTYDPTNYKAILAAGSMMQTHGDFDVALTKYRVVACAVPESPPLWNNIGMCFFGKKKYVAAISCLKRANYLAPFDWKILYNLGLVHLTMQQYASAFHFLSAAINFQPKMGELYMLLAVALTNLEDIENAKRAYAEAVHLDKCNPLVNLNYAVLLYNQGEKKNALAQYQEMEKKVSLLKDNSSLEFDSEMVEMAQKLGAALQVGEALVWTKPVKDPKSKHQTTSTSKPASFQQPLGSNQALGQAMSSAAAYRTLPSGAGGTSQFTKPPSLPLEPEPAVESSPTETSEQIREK
B2: BBSome complex member BBS4 (Homo sapiens), Q96RK4 (parent)
chain: B1 partner

Variants of: B1
Settings: with bbs4_human BBS4, Q96RK4

With MAAASSSDSDACGAESNEANSKWLDAHYDPMANIHTFSACLALADLHGDGEYKLVVGDLGPGGQQPRLKVLKGPLVMTESPLPALPAAAATFLMEQHEPRTPALALASGPCVYVYKNLRPYFKFSLPQLPPNPLEQDLWNQAKEDRIDPLTLKEMLESIRETAEEPLSIQSLRFLQLELSEMEAFVNQHKSNSIKRQTVITTMTTLKKNLADEDAVSCLVLGTENKELLVLDPEAFTILAKMSLPSVPVFLEVSGQFDVEFRLAAACRNGNIYILRRDSKHPKYCIELSAQPVGLIRVHKVLVVGSTQDSLHGFTHKGKKLWTVQMPAAILTMNLLEQHSRGLQAVMAGLANGEVRIYRDKALLNVIHTPDAVTSLCFGRYGREDNTLIRTTRGGGLIIKILKRTAVFVEGGSEVGPPPAQAMKLNVPRKTRLYVDQTLREREAGTAMHRAFQTDLYLLRLRAARAYLQALESSLSPLSTTAREPLKLHAVVQGLGPTFKLTLHLQNTSTTRPVLGLLVCFLYNEALYSLPRAFFKVPLLVPGLNYPLETFVESLSNKGISDIIKVLVLREGQSAPLLSAHVNMPGSEGLAAA [M390R] as the variant, how does the “effect of a mutation on the interaction” value read?
The value was “decreasing interaction”.

Variants of: B2
Settings: with pcm1_human PCM1, Q15154
Chain of pcm1_human PCM1, Q15154 (Q15154 whole entry): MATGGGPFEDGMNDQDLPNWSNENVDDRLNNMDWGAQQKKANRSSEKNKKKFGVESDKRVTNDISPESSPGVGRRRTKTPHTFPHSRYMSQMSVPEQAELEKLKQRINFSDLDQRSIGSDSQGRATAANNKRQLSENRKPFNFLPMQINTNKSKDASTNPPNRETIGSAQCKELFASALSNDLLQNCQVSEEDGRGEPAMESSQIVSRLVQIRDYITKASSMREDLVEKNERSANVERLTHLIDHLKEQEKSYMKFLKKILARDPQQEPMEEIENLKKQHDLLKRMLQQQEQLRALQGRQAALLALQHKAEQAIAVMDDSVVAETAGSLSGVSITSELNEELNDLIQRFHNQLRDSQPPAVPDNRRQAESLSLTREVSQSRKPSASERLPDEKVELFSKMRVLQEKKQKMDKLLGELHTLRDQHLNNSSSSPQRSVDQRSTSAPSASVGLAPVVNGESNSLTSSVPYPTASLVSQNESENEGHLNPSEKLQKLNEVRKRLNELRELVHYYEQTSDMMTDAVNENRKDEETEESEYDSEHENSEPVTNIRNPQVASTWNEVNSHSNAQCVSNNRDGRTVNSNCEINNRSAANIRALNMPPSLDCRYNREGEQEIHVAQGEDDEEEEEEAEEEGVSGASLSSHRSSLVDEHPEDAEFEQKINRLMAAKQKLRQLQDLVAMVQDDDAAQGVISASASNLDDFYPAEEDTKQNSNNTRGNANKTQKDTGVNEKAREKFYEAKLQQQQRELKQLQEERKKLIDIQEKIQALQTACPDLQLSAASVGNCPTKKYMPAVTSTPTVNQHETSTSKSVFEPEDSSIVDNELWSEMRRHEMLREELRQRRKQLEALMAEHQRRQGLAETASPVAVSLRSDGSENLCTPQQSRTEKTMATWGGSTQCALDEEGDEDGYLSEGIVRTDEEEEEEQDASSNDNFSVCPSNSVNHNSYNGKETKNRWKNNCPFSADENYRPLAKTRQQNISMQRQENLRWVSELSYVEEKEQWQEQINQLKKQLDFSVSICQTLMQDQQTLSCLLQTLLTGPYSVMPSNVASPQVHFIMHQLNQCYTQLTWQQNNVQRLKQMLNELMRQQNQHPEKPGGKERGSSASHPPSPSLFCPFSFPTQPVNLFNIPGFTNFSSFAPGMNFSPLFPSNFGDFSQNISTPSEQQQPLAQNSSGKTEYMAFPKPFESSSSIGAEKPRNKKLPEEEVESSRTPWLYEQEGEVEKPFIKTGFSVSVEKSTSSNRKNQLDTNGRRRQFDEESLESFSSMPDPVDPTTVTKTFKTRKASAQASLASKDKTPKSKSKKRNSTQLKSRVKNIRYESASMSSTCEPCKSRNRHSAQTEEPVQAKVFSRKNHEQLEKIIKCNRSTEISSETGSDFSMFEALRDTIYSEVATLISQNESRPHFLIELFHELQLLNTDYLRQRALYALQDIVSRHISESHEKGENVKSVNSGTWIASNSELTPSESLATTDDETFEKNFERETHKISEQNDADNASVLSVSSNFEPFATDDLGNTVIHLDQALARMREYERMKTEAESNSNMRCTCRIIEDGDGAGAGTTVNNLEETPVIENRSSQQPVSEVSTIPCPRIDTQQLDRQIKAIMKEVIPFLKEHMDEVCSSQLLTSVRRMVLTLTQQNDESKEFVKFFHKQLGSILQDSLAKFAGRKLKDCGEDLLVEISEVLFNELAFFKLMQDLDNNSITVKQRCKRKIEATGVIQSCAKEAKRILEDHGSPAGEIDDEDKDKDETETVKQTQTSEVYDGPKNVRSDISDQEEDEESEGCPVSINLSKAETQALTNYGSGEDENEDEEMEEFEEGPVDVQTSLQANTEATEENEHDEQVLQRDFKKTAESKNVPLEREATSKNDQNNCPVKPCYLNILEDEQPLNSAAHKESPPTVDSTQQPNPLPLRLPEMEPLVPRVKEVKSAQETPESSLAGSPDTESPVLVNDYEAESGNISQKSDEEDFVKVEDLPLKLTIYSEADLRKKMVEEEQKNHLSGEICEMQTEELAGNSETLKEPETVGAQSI

With MAEERVATRTQFPVSTESQKPRQKKAPEFPILEKQNWLIHLHYIRKDYEACKAVIKEQLQETQGLCEYAIYVQALIFRLEGNIQESLELFQTCAVLSPQSADNLKQVARSLFLLGKHKAAIEVYNEAAKLNQKDWEISHNLGVCYIYLKQFNKAQDQLHNALNLNRHDLTYIMLGKIHLLEGDLDKAIEVYKKAVEFSPENTELLTTLGLLYLQLGIYQKAFEHLGNALTYDPTNYKAILAAGSMMQTHGDFDVALTKYRVVACAVPESPPLWNNIEMCFFGKKKYVAAISCLKRANYLAPFDWKILYNLGLVHLTMQQYASAFHFLSAAINFQPKMGELYMLLAVALTNLEDIENAKRAYAEAVHLDKCNPLVNLNYAVLLYNQGEKKNALAQYQEMEKKVSLLKDNSSLEFDSEMVEMAQKLGAALQVGEALVWTKPVKDPKSKHQTTSTSKPASFQQPLGSNQALGQAMSSAAAYRTLPSGAGGTSQFTKPPSLPLEPEPAVESSPTETSEQIREK [G277E] as the variant, how does the “effect of a mutation on the interaction” value read?
The value was “disrupting interaction”.

How did the “effect of a mutation on the interaction” value turn out when MAEERVATRTQFPVSTESQKPRQKKAPEFPILEKQNWLIHLHYIRKDYEACKAVIKEQLQETQGLCEYAIYVQALIFRLEGNIQESLELFQTCAVLSPQSADNLKQVARSLFLLGKHKAAIEVYNEAAKLNQKDWEISHNLGVCYIYLKQFNKAQDQLHNALNLNRHDLTYIMLGKIHLLEGDLDKAIEVYKKAVEFSPENTELLTTLGLLYLQLGIYQKAFEHLGNALTYDPTNYKAILAAGSMMQTHGDFDVALTKYRVVACAVPESPPLWNNIGMCFFGKKKYVAAISCLKPANYLAPFDWKILYNLGLVHLTMQQYASAFHFLSAAINFQPKMGELYMLLAVALTNLEDIENAKRAYAEAVHLDKCNPLVNLNYAVLLYNQGEKKNALAQYQEMEKKVSLLKDNSSLEFDSEMVEMAQKLGAALQVGEALVWTKPVKDPKSKHQTTSTSKPASFQQPLGSNQALGQAMSSAAAYRTLPSGAGGTSQFTKPPSLPLEPEPAVESSPTETSEQIREK [R295P] was run?
The value was “disrupting interaction”.
